# Measurements reported in article PMC9587022 (2022).
# B1: HA-tagged UL97, wild type, full length (pCGN-HA-UL97) [human cytomegalovirus (HCMV)] / Flag-tagged 14-3-3 γ [human] (parent complex)
# chain 1: MSSALRSRARSASLGTTTQGWDPPPLRRPSRARRRQWMREAAQAAAQAAVQAAQAAAAQVAQAHVDENEVVDLMADEAGGGVTTLTTLSSVSTTTVLGHATFSACVRSDVMRDGEKEDAASDKENLRRPVVPSTSSRGSAASGDGYHGLRCRETSAMWSFEYDRDGDVTSVRRALFTGGSDPSDSVSGVRGGRKRPLRPPLVSLARTPLCRRRVGGVDAVLEENDVELRAESQDSAVASGPGRIPQPLSGSSGEESATAVEADSTSHDDVHCTCSNDQIITTSIRGLTCDPRMFLRLTHPELCELSISYLLVYVPKEDDFCHKICYAVDMSDESYRLGQGSFGEVWPLDRYRVVKVARKHSETVLTVWMSGLIRTRAAGEQQQPPSLVGTGVHRGLLTATGCCLLHNVTVHRRFHTDMFHHDQWKLACIDSYRRAFCTLADAIKFLNHQCRVCHFDITPMNVLIDVNPHNPSEIVRAALCDYSLSEPYPDYNERCVAVFQETGTARRIPNCSHRLRECYHPAFRPMPLQKLLICDPHARFPVAGLRRYCMSELSALGNVLGFCLMRLLDRRGLDEVRMGTEALLFKHAGAACRALENGKLTHCSDACLLILAAQMSYGACLLGEHGAALVSHTLRFVEAKMSSCRVRAFRRFYHECSQTMLHEYVRKNVERLLATSDGLYLYNAFRRTTSIICEEDLDGDCRQLFPE
# chain 2: MVDREQLVQKARLAEQAERYDDMAAAMKNVTELNEPLSNEERNLLSVAYKNVVGARRSSWRVISSIEQKTSADGNEKKIEMVRAYREKIEKELEAVCQDVLSLLDNYLIKNCSETQYESKVFYLKMKGDYYRYLAEVATGEKRATVVESSEKAYSEAHEISKEHMQPTHPIRLGLALNYSVFYYEIQNAPEQACHLAKTAFDDAIAELDTLNEDSYKDSTLIMQLLRDNLTLWTSDQQDDDGGEGNN
# B2: HA-tagged UL97, wild type, full length (pCGN-HA-UL97) [human cytomegalovirus (HCMV)] / Flag-tagged 14-3-3 η [human] (parent complex)
# chain 1: B1 chain 1
# chain 2: MGDREQLLQRARLAEQAERYDDMASAMKAVTELNEPLSNEDRNLLSVAYKNVVGARRSSWRVISSIEQKTMADGNEKKLEKVKAYREKIEKELETVCNDVLSLLDKFLIKNCNDFQYESKVFYLKMKGDYYRYLAEVASGEKKNSVVEASEAAYKEAFEISKEQMQPTHPIRLGLALNFSVFYYEIQNAPEQACLLAKQAFDDAIAELDTLNEDSYKDSTLIMQLLRDNLTLWTSDQQDEEAGEGN
# B3: HA-tagged UL97, wild type, full length (pCGN-HA-UL97) [human cytomegalovirus (HCMV)] / Flag-tagged 14-3-3 ε [human] (parent complex)
# chain 1: B1 chain 1
# chain 2: MDDREDLVYQAKLAEQAERYDEMVESMKKVAGMDVELTVEERNLLSVAYKNVIGARRASWRIISSIEQKEENKGGEDKLKMIREYRQMVETELKLICCDILDVLDKHLIPAANTGESKVFYYKMKGDYHRYLAEFATGNDRKEAAENSLVAYKAASDIAMTELPPTHPIRLGLALNFSVFYYEILNSPDRACRLAKAAFDDAIAELDTLSEESYKDSTLIMQLLRDNLTLWTSDMQGDGEEQNKEALQDVEDENQ
# B4: HA-tagged UL97, wild type, full length (pCGN-HA-UL97) [human cytomegalovirus (HCMV)] / Flag-tagged 14-3-3 β [human] (parent complex)
# chain 1: B1 chain 1
# chain 2: MTMDKSELVQKAKLAEQAERYDDMAAAMKAVTEQGHELSNEERNLLSVAYKNVVGARRSSWRVISSIEQKTERNEKKQQMGKEYREKIEAELQDICNDVLELLDKYLIPNATQPESKVFYLKMKGDYFRYLSEVASGDNKQTTVSNSQQAYQEAFEISKKEMQPTHPIRLGLALNFSVFYYEILNSPEKACSLAKTAFDEAIAELDTLNEESYKDSTLIMQLLRDNLTLWTSENQGDEGDAGEGEN
# B5: HA-tagged UL97, wild type, full length (pCGN-HA-UL97) [human cytomegalovirus (HCMV)] / Flag-tagged 14-3-3 θ [human] (parent complex)
# chain 1: B1 chain 1
# chain 2: MEKTELIQKAKLAEQAERYDDMATCMKAVTEQGAELSNEERNLLSVAYKNVVGGRRSAWRVISSIEQKTDTSDKKLQLIKDYREKVESELRSICTTVLELLDKYLIANATNPESKVFYLKMKGDYFRYLAEVACGDDRKQTIDNSQGAYQEAFDISKKEMQPTHPIRLGLALNFSVFYYEILNNPELACTLAKTAFDEAIAELDTLNEDSYKDSTLIMQLLRDNLTLWTSDSAGEECDAAEGAEN
# Variants of: B1
# Assay: co-immunoprecipitation (IP anti-HA, Western blot quantification); U-2 OS cells; WT UL97 0.6 μg, mutant 1.2 μg expression vector; 1 μg Flag-14-3-3 plasmid; read off a plot
row,Variant,ratio to parent
1,chain 1 K355Q,~0.62
2,chain 1 S13A,~0.07

# Variants of: B2
# Assay: as above
row,Variant,ratio to parent
1,chain 1 K355Q,~0.32
2,chain 1 S13A,~0.17

# Variants of: B3
# Assay: as above
row,Variant,ratio to parent
1,chain 1 K355Q,~0.42
2,chain 1 S13A,~0.06

# Variants of: B4
# Assay: as above
row,Variant,ratio to parent
1,chain 1 S13A,~0.14
2,chain 1 K355Q,~0.45

# Variants of: B5
# Assay: as above
row,Variant,ratio to parent
1,chain 1 S13A,~0.05
2,chain 1 K355Q,~0.2
